T1: CT45 (CT45A1, A2, A3, A5 to A10); CT45-IP peptide on HLA-A*02:01 (human)
T1 peptide: KIFEMLEGV

T2: similar peptide SP-05-0005, source protein not stated peptide on HLA-A*02:01 (human)
T2 peptide: KIEEFLEAV

T3: CT45-IP alanine variant, position 7 peptide on HLA-A*02:01 (human)
T3 peptide: KIFEMLAGV

T4: similar peptide SP-05-0004, source protein not stated peptide on HLA-A*02:01 (human)
T4 peptide: KIWEWLVGV

T5: similar peptide SP-05-0001, source protein not stated peptide on HLA-A*02:01 (human)
T5 peptide: HIMEHLEGV

T6: similar peptide SP-05-0008, source protein not stated peptide on HLA-A*02:01 (human)
T6 peptide: KILDELEKV

T7: CT45-IP alanine variant, position 8 peptide on HLA-A*02:01 (human)
T7 peptide: KIFEMLEAV

T8: CT45-IP alanine variant, position 6 peptide on HLA-A*02:01 (human)
T8 peptide: KIFEMAEGV

T9: similar peptide SP-05-0003, source protein not stated peptide on HLA-A*02:01 (human)
T9 peptide: KVTEMLVNV

T10: similar peptide SP-05-0010, source protein not stated peptide on HLA-A*02:01 (human)
T10 peptide: RIFETVNSV

T11: similar peptide SP-05-0007, source protein not stated peptide on HLA-A*02:01 (human)
T11 peptide: KIFPALCTV

T12: similar peptide SP-05-0006, source protein not stated peptide on HLA-A*02:01 (human)
T12 peptide: KIAELLENV

T13: similar peptide SP-05-0009, source protein not stated peptide on HLA-A*02:01 (human)
T13 peptide: KIIDLLPKV

T14: similar peptide SP-05-0002, source protein not stated peptide on HLA-A*02:01 (human)
T14 peptide: KIFSGLLKV

T15: CT45-IP alanine variant, position 4 peptide on HLA-A*02:01 (human)
T15 peptide: KIFAMLEGV

T16: CT45-IP alanine variant, position 3 peptide on HLA-A*02:01 (human)
T16 peptide: KIAEMLEGV

T17: CT45-IP alanine variant, position 1 peptide on HLA-A*02:01 (human)
T17 peptide: AIFEMLEGV


Key:
[1] = target: T1, CT45 (CT45A1, A2, A3, A5 to A10); …; assay: CT45-IP-HLA-A*02 dextramer on T cells with TCR mRNA; TCR found by tetramer sorting; full-length, on cells
[2] = target: CT45-IP-HLA-A*02 dextramer (human); assay: flow cytometry, dextramer staining of TCR-mRNA electroporated T cells, gated on CD3+
[3] = target: T1, CT45 (CT45A1, A2, A3, A5 to A10); …; assay: luciferase release, 24 h, 1:1; CD8+ T cells with TCR mRNA, T2 cells with titrated peptide; full-length, on cells
[4] = target: T2, similar peptide SP-05-0005, source …; assay: killing
[5] = target: T3, CT45-IP alanine variant, position 7 …; assay: killing
[6] = target: T4, similar peptide SP-05-0004, source …; assay: killing
[7] = target: T5, similar peptide SP-05-0001, source …; assay: killing
[8] = target: T6, similar peptide SP-05-0008, source …; assay: killing
[9] = target: T7, CT45-IP alanine variant, position 8 …; assay: killing
[10] = target: T8, CT45-IP alanine variant, position 6 …; assay: killing
[11] = target: T9, similar peptide SP-05-0003, source …; assay: killing
[12] = target: T10, similar peptide SP-05-0010, source …; assay: killing
[13] = target: T11, similar peptide SP-05-0007, source …; assay: killing
[14] = target: T12, similar peptide SP-05-0006, source …; assay: killing
[15] = target: T13, similar peptide SP-05-0009, source …; assay: killing
[16] = target: T14, similar peptide SP-05-0002, source …; assay: killing
[17] = target: CT45-IP antigenic peptide (…) in complex with HLA-A*02 presented on cells (peptide-loaded T2 cells; NCIH1703 and A375 tumor cells) (human); assay: cell-based or functional assay
[18] = target: T15, CT45-IP alanine variant, position 4 …; assay: killing
[19] = target: T16, CT45-IP alanine variant, position 3 …; assay: killing
[20] = target: T17, CT45-IP alanine variant, position 1 …; assay: killing

dextramer-positive events [1] [%] | surface expression, % positive events by CT45-IP-HLA-A2*02 dextramer staining [2] [%] | EC50 of peptide [3] [nM] | Binder | binding result [4] | binding result [5] | binding result [6] | binding result [7] | binding result [8] | binding result [9] | binding result [10] | binding result [11] | binding result [12] | binding result [13] | binding result [14] | binding result [15] | binding result [16] | EC50, half maximal killing capacity (functional avidity; CT45-IP peptide titration on T2 cells, luciferase release) [17] [nM] | binding result [18] | binding result [19] | binding result [20]
11.6 | 11.6 | 17.7 | TCR-14 (TCR, V domains shown) Valpha: QKITQTQPGMFVQEKEAVTLDCTYDTSDQSYGLFWYKQPSSGEMIFLIYQGSYDEQNATEGRYSLNFQKARKSANLVISASQLGDSAMYFCAINGLPGSARQLTFGSGTQLTVLP Vbeta: GVAQSPRYKIIEKRQSVAFWCNPISGHATLYWYQQILGQGPKLLIQFQNNGVVDDSQLPKDRFSAERLKGVDSTLKIQPAKLEDSAVYLCASSRFVATGTSPLHFGNGTRLTVT | no recognition | recognises | no recognition | no recognition | no recognition | recognises | recognises | no recognition | no recognition | no recognition | no recognition | no recognition | no recognition | 17.7 | – | – | –
60.7 | 60.7 | 6.52 | TCR-8 (TCR, V domains shown) Valpha: QKVTQAQTEISVVEKEDVTLDCVYETRDTTYYLFWYKQPPSGELVFLIRRNSFDEQNEISGRYSWNFQKSTSSFNFTITASQVVDSAVYFCALSGRGSGTYKYIFGTGTRLKVLA Vbeta: GVIQSPRHLIKEKRETATLKCYPIPRHDTVYWYQQGPGQDPQFLISFYEKMQSDKGSIPDRFSAQQFSDYHSELNMSSLELGDSALYFCASSAGTSYNEQFFGPGTRLTVL | no recognition | – | no recognition | no recognition | no recognition | recognises | recognises | no recognition | no recognition | no recognition | no recognition | no recognition | no recognition | 6.52 | recognises | recognises | recognises

From patent publication US20230057987A1 (published 2023)
